Measurements from paper PMC3521654, “The Nuclear Chaperone Nucleophosmin Escorts an Epstein-Barr Virus Nuclear Antigen to Establish Transcriptional Cascades for Latent Infection in Human B Cells” (PLoS Pathogens, 2012).

T1: GST-E2 300–360 (Epstein-Barr virus, UniProt P12978 300-360)
T1 construct: source: E. coli BL21 (DE3) pLys, purified (GST-sepharose)
T1 sequence: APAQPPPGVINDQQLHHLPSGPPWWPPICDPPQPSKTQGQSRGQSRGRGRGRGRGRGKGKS

T2: EBNA2 from the transfected expression vector (pSG5-EBNA2, E2) (Epstein-Barr virus, UniProt P12978 1-487)
T2 sequence (looked up): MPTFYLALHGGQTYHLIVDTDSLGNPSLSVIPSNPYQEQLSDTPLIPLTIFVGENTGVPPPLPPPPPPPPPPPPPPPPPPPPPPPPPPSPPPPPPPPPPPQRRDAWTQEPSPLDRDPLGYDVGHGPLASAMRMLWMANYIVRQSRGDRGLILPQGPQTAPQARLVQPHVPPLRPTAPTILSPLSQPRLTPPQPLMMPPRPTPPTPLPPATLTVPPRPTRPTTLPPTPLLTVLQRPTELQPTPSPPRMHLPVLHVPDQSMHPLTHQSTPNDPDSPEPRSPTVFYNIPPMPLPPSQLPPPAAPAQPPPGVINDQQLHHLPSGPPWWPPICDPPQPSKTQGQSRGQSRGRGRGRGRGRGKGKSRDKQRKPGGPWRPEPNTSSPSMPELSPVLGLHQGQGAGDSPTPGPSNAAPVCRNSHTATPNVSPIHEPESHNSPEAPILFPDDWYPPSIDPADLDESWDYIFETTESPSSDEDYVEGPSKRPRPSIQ

B1: flag-tagged NPM1 truncated deletion mutant C3 (1–120) (domain or fragment, UniProt P06748 1-120, looked up)
chain: MEDSMDMDMSPLRPQNYLFGCELKADKDYHFKVDNDENEHQLSLRTVSLGAGAKDELHIVEAEAMNYEGSPIKVTLATLKMSVQPTVSLGGFEITPPVVLRLKCGSGPVHISGQHLVAVE
notes: also called N-terminal oligomerization domain (OD); source: BJAB, transfected, in lysate
B2: flag-tagged NPM1 truncated deletion mutant C2 (1–194) (domain or fragment, UniProt P06748 1-194, looked up)
chain: MEDSMDMDMSPLRPQNYLFGCELKADKDYHFKVDNDENEHQLSLRTVSLGAGAKDELHIVEAEAMNYEGSPIKVTLATLKMSVQPTVSLGGFEITPPVVLRLKCGSGPVHISGQHLVAVEEDAESEDEEEEDVKLLSISGKRSAPGGGSKVPQKKVKLAADEDDDDDDEEDDDEDDDDDDFDDEEAEEKAPVKK
notes: source: BJAB, transfected, in lysate

Experiments:
[1] = biological target: T1, GST-E2 300–360; test: pull-down; settings: one partner purified
[2] = biological target: T2, EBNA2 from the transfected expression …; test: cell-based or functional assay

Row | Binder | percent of input pulled down [1] [%] | co-activation of EBNA2-dependent LMP1-Luc reporter activity in BJAB cells [2] [fold]
1 | B1 | ~2 | 2.5
2 | B2 | ~2 | 2.5
